Reference: article PMC8639777 (Nature, 2021)
Changes are numbered by the printed parent chain. Names may count otherwise.

How the values were obtained:
Test in all cases: BLI
[1] = biological target: human ALK glycine-rich domain (GRD), residues 678-1030, wild type (human, UniProt Q9UM73 678-1030)
[2] = biological target: human ALK GRD (678-1030) E974R (human, UniProt Q9UM73 678-1030, E974R)
[3] = biological target: human ALK GRD (678-1030) E978R (human, UniProt Q9UM73 678-1030, E978R)
[4] = biological target: human ALK GRD (678-1030) Y966R (human, UniProt Q9UM73 678-1030, Y966R)
Sequence of human ALK GRD (678-1030) Y966R (Q9UM73 678-1030 Y966R): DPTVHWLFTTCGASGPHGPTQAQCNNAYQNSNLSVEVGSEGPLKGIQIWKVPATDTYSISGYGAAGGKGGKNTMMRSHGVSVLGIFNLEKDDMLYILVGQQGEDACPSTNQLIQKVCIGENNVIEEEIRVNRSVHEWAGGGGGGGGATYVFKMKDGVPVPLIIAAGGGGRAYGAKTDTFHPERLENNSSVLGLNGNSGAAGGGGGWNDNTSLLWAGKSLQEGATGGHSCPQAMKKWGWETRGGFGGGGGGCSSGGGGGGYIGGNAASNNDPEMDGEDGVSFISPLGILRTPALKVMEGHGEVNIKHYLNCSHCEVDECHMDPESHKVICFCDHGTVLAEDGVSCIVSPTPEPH

Sequence of human ALK glycine-rich domain (GRD), residues 678-1030, wild type (Q9UM73 678-1030): as the sequence (Q9UM73 678-1030 Y966R) above, with R289Y counted along it
Sequence of human ALK GRD (678-1030) E974R (Q9UM73 678-1030 E974R): as the sequence (Q9UM73 678-1030 Y966R) above, with R289Y, E297R counted along it
Sequence of human ALK GRD (678-1030) E978R (Q9UM73 678-1030 E978R): as the sequence (Q9UM73 678-1030 Y966R) above, with R289Y, E301R counted along it

B1: human ALKAL2 ALKAL domain (ALKAL2-AD), residues 71-152, wild type (ligand, UniProt Q6UX46 71-152, looked up)
chain: AEAAGLGPSPEQRVEIVPRDLRMKDKFLKHLTGPLYFSPKCSKHFHRLYHNTRDCTIPAYYKRCARLLTRLAVSPVCMEDKQ
- Kd [1]: 0.329 µM
- Kd [2]: 1.41 µM
- Kd [3]: 6.11 µM
- Kd [4]: 5.12 µM

B2: human ALKAL2-AD (71-152) R140E (ligand, UniProt Q6UX46 71-152, looked up)
chain: B1 chain with R70E
- Kd [1]: 2.95 µM

B3: human ALKAL2-AD (71-152) R123E (ligand, UniProt Q6UX46 71-152, looked up)
chain: B1 chain with R53E
- Kd [1]: 0.391 µM
